The values below come from the supplement of paper PMC10567573.

The chains are these.
B1: TSN (parent)
chain: AFVVYLETETLVTREAVTEILGIE
B2: KCNA3 (parent)
chain: YQSGGRIRRPVNVPIDIFSEEIRF
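Further: lentivirally expressed fusions sorted by FACS into six bins by GFP to DsRed ratio, PSI derived from sequencing read proportions per bin multiplied by bin number.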

In one data set the parent is B1. The experiment in a line: protein stability index of a GFP-peptide fusion (GPS, HEK-293T) (PSI 1-6); higher = more stable. Conditions: c terminus: a fixed tail appended.
Turning to AFSVYLETETLVTREAVTEILGIE [V3S], the protein stability index worked out at 1.15.

With AFNVYLETETLVTREAVTEILGIE [V3N], the protein stability index stood at 2.37.

In the case of AFFVYLETETLVTREAVTEILGIE [V3F], the protein stability index turned out to be 1.99.

Consider AFTVYLETETLVTREAVTEILGIE [V3T], for which the protein stability index stood at 3.95.

Consider AFHVYLETETLVTREAVTEILGIE [V3H], for which the protein stability index turned out to be 2.3.

Take AFYVYLETETLVTREAVTEILGIE [V3Y]: the protein stability index is 2.86.

For the variant AFPVYLETETLVTREAVTEILGIE [V3P], the protein stability index was 2.89.

Consider AFAVYLETETLVTREAVTEILGIE [V3A], for which the protein stability index stood at 2.32.

The next data set covers variants of B2. The data set is described as above. As to conditions: c terminus: a fixed tail appended.
Consider YQSGGRIRRPVNVPIDIFSEEIRT [F24T], for which the protein stability index was determined as 2.52.

As for YQSGGRIRRPVNVPIDIFSEEIRH [F24H], the protein stability index was found to be 2.4.

On to YQSGGRIRRPVNVPIDIFSEEIRW [F24W], for which the protein stability index was found to be 1.66.

Consider YQSGGRIRRPVNVPIDIFSEEIRK [F24K], for which the protein stability index is 1.94.

Take YQSGGRIRRPVNVPIDIFSEEIRV [F24V]: the protein stability index was found to be 2.42.

Regarding YQSGGRIRRPVNVPIDIFSEEIRM [F24M], the protein stability index amounted to 2.52.

For the variant YQSGGRIRRPVNVPIDIFSEEIRA [F24A], the protein stability index was determined as 2.53.

In the case of YQSGGRIRRPVNVPIDIFSEEIRI [F24I], the protein stability index is 2.47.

For the variant YQSGGRIRRPVNVPIDIFSEEIRC [F24C], the protein stability index was found to be 2.32.

Consider YQSGGRIRRPVNVPIDIFSEEIRN [F24N], for which the protein stability index amounted to 3.24.

As for YQSGGRIRRPVNVPIDIFSEEIRL [F24L], the protein stability index came out at 2.37.

Regarding YQSGGRIRRPVNVPIDIFSEEIRD [F24D], the protein stability index was 2.1.

For YQSGGRIRRPVNVPIDIFSEEIRR [F24R], the protein stability index turned out to be 2.38.

Regarding YQSGGRIRRPVNVPIDIFSEEIRS [F24S], the protein stability index was 2.4.

Take YQSGGRIRRPVNVPIDIFSEEIRQ [F24Q]: the protein stability index was found to be 2.31.

Regarding YQSGGRIRRPVNVPIDIFSEEIRG [F24G], the protein stability index worked out at 1.62.

As to YQSGGRIRRPVNVPIDIFSEEIRP [F24P], the protein stability index was found to be 2.26.

Consider YQSGGRIRRPVNVPIDIFSEEIQF [R23Q], for which the protein stability index is 1.72.

For YQSGGRIRRPVNVPIDIFSEEIMF [R23M], the protein stability index worked out at 1.67.

Turning to YQSGGRIRRPVNVPIDIFSEEIDF [R23D], the protein stability index is 3.

With YQSGGRIRRPVNVPIDIFSEEICF [R23C], the protein stability index was determined as 1.23.

With YQSGGRIRRPVNVPIDIFSEEIVF [R23V], the protein stability index was determined as 1.68.

For YQSGGRIRRPVNVPIDIFSEEIFF [R23F], the protein stability index worked out at 1.53.

YQSGGRIRRPVNVPIDIFSEEIAF [R23A]: the protein stability index was 2.29.

With YQSGGRIRRPVNVPIDIFSEEIEF [R23E], the protein stability index came out at 2.19.

Take YQSGGRIRRPVNVPIDIFSEEIWF [R23W]: the protein stability index was determined as 1.05.

As to YQSGGRIRRPVNVPIDIFSEEIPF [R23P], the protein stability index was found to be 1.97.

Turning to YQSGGRIRRPVNVPIDIFSEEIHF [R23H], the protein stability index came to 2.37.

Consider YQSGGRIRRPVNVPIDIFSEEILF [R23L], for which the protein stability index was determined as 1.28.

YQSGGRIRRPVNVPIDIFSEEITF [R23T]: the protein stability index turned out to be 1.62.

Take YQSGGRIRRPVNVPIDIFSEEIKF [R23K]: the protein stability index was 2.3.

With YQSGGRIRRPVNVPIDIFSEEINF [R23N], the protein stability index was 1.77.

Consider YQSGGRIRRPVNVPIDIFSEEYRF [I22Y], for which the protein stability index came out at 1.8.

Regarding YQSGGRIRRPVNVPIDIFSEELRF [I22L], the protein stability index turned out to be 2.06.

For the variant YQSGGRIRRPVNVPIDIFSEEVRF [I22V], the protein stability index was determined as 3.48.

With YQSGGRIRRPVNVPIDIFSEEDRF [I22D], the protein stability index is 2.5.

In the case of YQSGGRIRRPVNVPIDIFSEEFRF [I22F], the protein stability index worked out at 1.69.

As for YQSGGRIRRPVNVPIDIFSEETRF [I22T], the protein stability index is 2.2.

Regarding YQSGGRIRRPVNVPIDIFSEENRF [I22N], the protein stability index was found to be 2.82.

With YQSGGRIRRPVNVPIDIFSEEKRF [I22K], the protein stability index worked out at 2.31.

For the variant YQSGGRIRRPVNVPIDIFSEERRF [I22R], the protein stability index is 2.68.

As to YQSGGRIRRPVNVPIDIFSEEPRF [I22P], the protein stability index came out at 1.98.

Regarding YQSGGRIRRPVNVPIDIFSEEMRF [I22M], the protein stability index came to 2.29.

As to YQSGGRIRRPVNVPIDIFSEESRF [I22S], the protein stability index amounted to 2.29.

For the variant YQSGGRIRRPVNVPIDIFSEEQRF [I22Q], the protein stability index is 2.86.

Take YQSGGRIRRPVNVPIDIFSEEARF [I22A]: the protein stability index stood at 1.34.

Consider YQSGGRIRRPVNVPIDIFSEEGRF [I22G], for which the protein stability index amounted to 1.68.

YQSGGRIRRPVNVPIDIFSEEHRF [I22H]: the protein stability index worked out at 2.71.

As for YQSGGRIRRPVNVPIDIFREEIRF [S19R], the protein stability index came to 1.64.

Take YQSGGRIRRPVNVPIDIFTEEIRF [S19T]: the protein stability index came out at 2.6.

In the case of YQSGGRIRRPVNVPIDIFNEEIRF [S19N], the protein stability index came to 2.74.

Turning to YQSGGRIRRPVNVPIDIFPEEIRF [S19P], the protein stability index came out at 1.73.

Consider YQSGGRIRRPVNVPIDIFYEEIRF [S19Y], for which the protein stability index was determined as 2.4.

Turning to YQSGGRIRRPVNVPIDIFQEEIRF [S19Q], the protein stability index worked out at 1.68.

In the case of YQSGGRIRRPVNVPIDIFSEDIRF [E21D], the protein stability index was determined as 1.56.

For YQSGGRIRRPVNVPIDIFSEYIRF [E21Y], the protein stability index stood at 2.56.

Take YQSGGRIRRPVNVPIDIFSERIRF [E21R]: the protein stability index came to 2.38.

Regarding YQSGGRIRRPVNVPIDIFSEFIRF [E21F], the protein stability index amounted to 1.62.

Turning to YQSGGRIRRPVNVPIDIFSELIRF [E21L], the protein stability index was 2.09.

In the case of YQSGGRIRRPVNVPIDIFSEVIRF [E21V], the protein stability index is 1.97.

Consider YQSGGRIRRPVNVPIDIFSEMIRF [E21M], for which the protein stability index amounted to 1.87.

Regarding YQSGGRIRRPVNVPIDIFSEAIRF [E21A], the protein stability index was 2.27.

On to YQSGGRIRRPVNVPIDIFSEQIRF [E21Q], for which the protein stability index is 2.75.

On to YQSGGRIRRPVNVPIDIFSECIRF [E21C], for which the protein stability index was found to be 2.51.

For YQSGGRIRRPVNVPIDIFSEHIRF [E21H], the protein stability index was determined as 2.

YQSGGRIRRPVNVPIDIFSEPIRF [E21P]: the protein stability index was 1.65.

For YQSGGRIRRPVNVPIDIFSENIRF [E21N], the protein stability index stood at 2.33.

For YQSGGRIRRPVNVPIDIFSEIIRF [E21I], the protein stability index came out at 1.6.

For YQSGGRIRRPVNVPIDIFSESIRF [E21S], the protein stability index was found to be 1.48.

YQSGGRIRRPVNVPIDIFSETIRF [E21T]: the protein stability index stood at 1.95.

Regarding YQSGGRIRRPVNVPIDIFSEKIRF [E21K], the protein stability index was found to be 1.84.

As for YQSGGRIRRPVNVPIDIFSREIRF [E20R], the protein stability index was 1.61.

As for YQSGGRIRRPVNVPIDIFSNEIRF [E20N], the protein stability index is 2.52.

As for YQSGGRIRRPVNVPIDIFSAEIRF [E20A], the protein stability index worked out at 2.06.

Regarding YQSGGRIRRPVNVPIDIFSQEIRF [E20Q], the protein stability index was 1.68.

With YQSGGRIRRPVNVPIDIFSTEIRF [E20T], the protein stability index was 1.53.

Take YQSGGRIRRPVNVPIDIFSFEIRF [E20F]: the protein stability index was 2.93.

As to YQSGGRIRRPVNVPIDIFSMEIRF [E20M], the protein stability index was 1.96.

Consider YQSGGRIRRPVNVPIDIFSKEIRF [E20K], for which the protein stability index was determined as 2.29.

On to YQSGGRIRRPVNVPIDIFSDEIRF [E20D], for which the protein stability index worked out at 2.26.

As for YQSGGRIRRPVNVPIDIFSHEIRF [E20H], the protein stability index turned out to be 2.04.

With YQSGGRIRRPVNVPIDIFSYEIRF [E20Y], the protein stability index came to 2.34.

For the variant YQSGGRIRRPVNVPIDIFSGEIRF [E20G], the protein stability index turned out to be 1.37.

In the case of YQSGGRIRRPVNVPIDIFSCEIRF [E20C], the protein stability index worked out at 2.19.

In the case of YQSGGRIRRPVNVPIDIFSPEIRF [E20P], the protein stability index stood at 2.11.

Turning to YQSGGRIRRPVNVPIDIFSSEIRF [E20S], the protein stability index was determined as 1.82.
